The record followed here is patent publication US20150344570A1 (published 2015).

The chains are these.
B1: GpH7-A5/GpH7-B3 variant L234_11K/GpL16-k0 (antibody, human IgG1, kappa)
heavy 1: not shown
heavy 2: not shown
light: DIVMTQSPLSLPVTPGEPASISCQASESLVHSNRNTYLHWYLQKPGQSPQLLIYKVSNRFSGVPDRFSGSGSGTDFTLKISRVEAEDVGVYYCSQNTHVPPTFGQGTKVEIERTVAAPSVFIFPPSDEQLKSGTASVVCLLNNFYPREAKVQWKVDNALQSGNSQESVTEQDSKDSTYSLSSTLTLSKADYEKHKVYACEVTHQGLSSPVTKSFNRGEC
notes: heterodimerized IgG1, mutation in one H chain only; also called He Ab
B2: GpH7-A5/GpH7-B3 variant L234_14T/GpL16-k0 (antibody, human IgG1, kappa)
heavy 1: not shown
heavy 2: not shown
light: B1 light
notes: as for B1
B3: GpH7-A5/GpH7-B3 variant L234_16H/GpL16-k0 (antibody, human IgG1, kappa)
heavy 1: not shown
heavy 2: not shown
light: B1 light
notes: as for B1
B4: GpH7-A5/GpH7-B3 variant L235_16H/GpL16-k0 (antibody, human IgG1, kappa)
heavy 1: not shown
heavy 2: not shown
light: B1 light
notes: as for B1
B5: GpH7-A5/GpH7-B3 variant L235_01G/GpL16-k0 (antibody, human IgG1, kappa)
heavy 1: not shown
heavy 2: not shown
light: B1 light
notes: as for B1
B6: GpH7-A5/GpH7-B3 variant L234_12R/GpL16-k0 (antibody, human IgG1, kappa)
heavy 1: not shown
heavy 2: not shown
light: B1 light
notes: as for B1
B7: GpH7-A5/GpH7-B3 variant L235_13S/GpL16-k0 (antibody, human IgG1, kappa)
heavy 1: not shown
heavy 2: not shown
light: B1 light
notes: as for B1
B8: GpH7-A5/GpH7-B3 variant L235_14T/GpL16-k0 (antibody, human IgG1, kappa)
heavy 1: not shown
heavy 2: not shown
light: B1 light
notes: as for B1
B9: GpH7-A5/GpH7-B3 variant L234_19Q/GpL16-k0 (antibody, human IgG1, kappa)
heavy 1: not shown
heavy 2: not shown
light: B1 light
notes: as for B1
B10: GpH7-A5/GpH7-B3 variant L235_11K/GpL16-k0 (antibody, human IgG1, kappa)
heavy 1: not shown
heavy 2: not shown
light: B1 light
notes: as for B1
B11: GpH7-A5/GpH7-B3 variant L235_18N/GpL16-k0 (antibody, human IgG1, kappa)
heavy 1: not shown
heavy 2: not shown
light: B1 light
notes: as for B1
B12: GpH7-A5/GpH7-B3 variant L235_19Q/GpL16-k0 (antibody, human IgG1, kappa)
heavy 1: not shown
heavy 2: not shown
light: B1 light
notes: as for B1
B13: GpH7-A5/GpH7-B3 variant D270_01G/GpL16-k0 (antibody, human IgG1, kappa)
heavy 1: not shown
heavy 2: not shown
light: B1 light
notes: Heterodimerized anti-glypican-3 IgG1 with the alteration in only one H chain; also called He Ab
B14: GpH7-A5/GpH7-B3 variant D270_06M/GpL16-k0 (antibody, human IgG1, kappa)
heavy 1: not shown
heavy 2: not shown
light: B1 light
notes: as for B13

In the first test the target is T1, FcγRIIa R (FcγRIIa allotype with Arg at position 131), extracellular domain with C-terminal His tag (human, UniProt P12318 34-217).
T1 construct: extracellular domain; made in FreeStyle293 cells; analyte in the Biacore assay; also called FcγRIIa type R; 2aR
T1 sequence (looked up): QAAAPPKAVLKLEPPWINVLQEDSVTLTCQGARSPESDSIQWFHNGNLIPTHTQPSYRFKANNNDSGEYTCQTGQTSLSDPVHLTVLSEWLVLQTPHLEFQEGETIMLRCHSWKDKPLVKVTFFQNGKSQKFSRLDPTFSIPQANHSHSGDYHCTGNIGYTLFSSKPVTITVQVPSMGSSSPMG
Put plainly: SPR (Biacore); He/Con_2aR divided by He/Con_2b, binding to FcγRIIa R against binding to FcγRIIb. As to the method:
(§1) The heterodimerized antibodies He Abs in which one of the H chains was introduced with an alteration were assayed for their binding activities to each activating FcγR and inhibitory FcγR according to the method described in Example 4. […] The activating FcγRs in FIGS. 26, 27, 28, and 29 are FcγRIa, FcγRIIa (R), FcγRIIa (H), and FcγRIIIa, respectively.
(§2) Analysis of interaction between objective antibody and the FcγR was carried out using Biacore T100 (GE Healthcare). HBS-EP+ (GE Healthcare) was used as the running buffer, and the measurement temperature was set to 25° C. Chips produced by immobilizing the antigen peptide by the amine coupling method to a Series S Sencor Chip CM5 (GE Healthcare), or alternatively, chips produced by allowing preliminarily biotinylated antigen peptides to interact with and immobilize onto a Series S Sensor Chip SA (certified) (GE Healthcare) were used. Antibodies of interest were captured onto an antigen peptide-immobilized chip, and allowed to interact to each FcγR diluted with running buffer. To regenerate and repeatedly use the chip, the antibodies captured on the chip were washed off by reacting 10 mM glycine-HCl, pH 1.5.
Background: In SPR one partner is held on a chip, and binding of the other changes the refractive index at the surface.
B1: the “He_2aR/2b (IIaR/IIb)” value amounted to 1.66 ratio.
Take B2: the “He_2aR/2b (IIaR/IIb)” value was found to be 1.24 ratio.
The same measure, in the same setting: for B3 the value was 1.21 ratio.
On to B4, for which the “He_2aR/2b (IIaR/IIb)” value is 1.23 ratio.
On the same count and under the same terms, for B5 the value was 1.37 ratio; for B6, 1.58 ratio; for B7, 1.36 ratio.
On the same count and under the same terms, for B8 the value was 1.3 ratio; for B9, 1.24 ratio.
Consider B10, for which the “He_2aR/2b (IIaR/IIb)” value was 1.72 ratio.
Same read-out and setting: for B11 the value was 1.21 ratio; for B12, 1.32 ratio.

The target of a further test is T2, FcγRIIIa extracellular domain with C-terminal His tag (human, UniProt P08637 17-208).
T2 construct: extracellular domain; also called FcgRIIIa; 3a; not shown: His tag attached to the C terminus
T2 sequence (P08637 17-208): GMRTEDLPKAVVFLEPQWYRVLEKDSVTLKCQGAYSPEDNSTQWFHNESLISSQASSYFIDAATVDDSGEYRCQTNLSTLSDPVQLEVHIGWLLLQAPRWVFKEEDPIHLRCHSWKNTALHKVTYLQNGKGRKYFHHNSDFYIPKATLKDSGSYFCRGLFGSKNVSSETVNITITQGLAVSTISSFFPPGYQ
Put plainly: SPR (Biacore); He/Con_3a divided by He/Con_2b (FcγRIIIa over FcγRIIb). As to the method:
as §1, §2
Molecule B13 yielded a He_3a/2b of 1.26 ratio.
In turn, B14 came in with a He_3a/2b of 1.38 ratio.

The target in the next test is T3, FcγRIIb extracellular domain with C-terminal His tag (human, UniProt P31994 43-217).
T3 construct: extracellular domain; Soluble receptor expressed in FreeStyle293 cells and used as analyte in Biacore; also called FcgRIIb; 2b; not shown: His tag attached to the C terminus
T3 sequence (looked up): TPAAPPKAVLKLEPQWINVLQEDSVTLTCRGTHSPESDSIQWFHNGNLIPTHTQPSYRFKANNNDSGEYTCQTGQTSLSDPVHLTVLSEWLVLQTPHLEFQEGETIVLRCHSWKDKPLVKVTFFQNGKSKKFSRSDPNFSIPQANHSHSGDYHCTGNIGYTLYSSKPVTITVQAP
Put plainly: SPR (Biacore), antibody captured, FcγR as analyte; binding activity relative to control heterodimerized antibody. The protocol: as §1, §2
In the case of B13, the He/Con_2b was 30.5 % of GpH7-A5/GpH7-B3/GpL16-k0 (=100).
With B14, the He/Con_2b is 48.2 % of GpH7-A5/GpH7-B3/GpL16-k0 (=100).

Another test deals with T2, FcγRIIIa extracellular domain with …. Described as above. As to the method: as §1, §2
Consider B13, for which the He/Con_3a was 38.5 % of GpH7-A5/GpH7-B3/GpL16-k0 (=100).
Still for that read-out and setting: for B14 the value was 66.3 % of GpH7-A5/GpH7-B3/GpL16-k0 (=100).

The target in the next test is T4, FcγRIIb, extracellular domain with C-terminal His tag (human, UniProt P31994 43-217).
T4 construct: extracellular domain; made in FreeStyle293 cells; analyte in the Biacore assay; also called 2b; FcgRIIb
T4 sequence (looked up): T3 sequence (looked up)
The test can be described thus: SPR (Biacore), antibody captured, FcγR analyte; vs GpH7-A5/GpH7-B3/GpL16-k0 = 100.
In the case of B1, the He/Con_2b was 16.2 relative (HeCon Ab = 100).
Still for that read-out and setting: for B2 the value was 62.5 relative (HeCon Ab = 100).
With B3, the He/Con_2b was 59.4 relative (HeCon Ab = 100).
The same measure, in the same setting: for B4 the value was 76.9 relative (HeCon Ab = 100); for B5, 35.4 relative (HeCon Ab = 100).
Same read-out and setting: the same measure for B6: 18.9 relative (HeCon Ab = 100).
The same measure, in the same setting: for B7 the value was 48.2 relative (HeCon Ab = 100); for B8, 46.8 relative (HeCon Ab = 100); for B9, 60.3 relative (HeCon Ab = 100).
Consider B10, for which the He/Con_2b is 6.3 relative (HeCon Ab = 100).
As to B11, the He/Con_2b is 54.9 relative (HeCon Ab = 100).
Still for that read-out and setting: for B12 the value was 42.6 relative (HeCon Ab = 100).

The next test deals with T1, FcγRIIa R (FcγRIIa allotype with Arg at …). The description is as above.
As for B1, the He/Con_2aR is 26.8 relative (HeCon Ab = 100).
The same measure, in the same setting: for B2 the value was 77.5 relative (HeCon Ab = 100); for B3, 71.8 relative (HeCon Ab = 100).
Still for that read-out and setting: for B4 the value was 94.8 relative (HeCon Ab = 100); for B5, 48.5 relative (HeCon Ab = 100); for B6, 29.9 relative (HeCon Ab = 100).
Same read-out and setting: the same measure for B7: 65.3 relative (HeCon Ab = 100); for B8: 60.7 relative (HeCon Ab = 100); for B9: 75.1 relative (HeCon Ab = 100).
Take B10: the He/Con_2aR was 10.8 relative (HeCon Ab = 100).
With B11, the He/Con_2aR is 66.5 relative (HeCon Ab = 100).
The same measure, in the same setting: for B12 the value was 56.2 relative (HeCon Ab = 100).
